Assay results reported in the Human Domainome abundance scans (Beltran et al. 2025).

B1: Transcriptional repressor p66-beta, residues 415 to 455; numbered along this chain, Q8WXI9 (parent)
chain: VEPFVCAQCRTDFTPHWKQEKNGKILCEQCMTSNQKKALKA

Variants of: B1
Assay: abundance fitness (aPCA) (normalised: wild type 0, dead -1); higher = more abundant; growth selection in yeast, the domain comes from the species named
Conditions: Homo sapiens

Abundance fitness, by site and new letter:
E2: P -0.29 | T 0.056 | W -0.651 | K -0.324 | Y -0.114 | V -0.227 | A -0.352 | H 0.197 | F -0.1 | L -0.469 | N 0.866 | M -0.019 | G -0.299 | D 1.14 | C -0.112 | R -0.55 | Q -0.297 | S -0.074 | I -0.342
C6: Y -0.23 | N -0.317 | R -1 | D -0.718 | E -1.02 | A -0.771 | M -1.12 | L -0.939 | S -0.911 | V -1.08 | W -0.955 | K -0.368 | G -1.02 | F -0.944 | T 0.403
P15: D 0.212 | L -0.018 | M -0.111 | C 0.051 | E -0.102 | G -0.048 | A -0.011 | T 0.078 | I -0.154 | Q -0.137 | R -0.15 | W -0.401 | V 0.015 | F -0.351
T14: W -0.521 | M -0.527 | H -0.039 | Y 0.264 | V 0.144 | F -0.056 | L -0.035 | S -0.042 | I -0.298 | P 0.137 | D -0.347 | E -0.041 | G -0.395 | Q -0.078 | R -0.237 | A -0.185 | K -0.014 | C -0.145
E20: G -0.034 | A -0.498 | K -0.468 | L -0.254 | P -0.631 | Q -0.303 | V -0.013 | S -0.115 | T -0.315 | R -0.314 | C 0.158 | W -0.362 | F -0.696 | D -0.645 | I 0.391
A7: C 0.325 | D 0.27 | H 0.534 | V 0.363 | S 0.523 | R 0.075 | P -0.091 | E 0.188 | W -0.223 | F 0.068 | K 0.09 | Y -0.309 | G 0.368 | T 0.208 | I 0.078 | L -0.158 | N 0.121 | M -0.165
V1: G 0.024 | R -0.054 | N -0.178 | T -0.187 | D -0.002 | E 0.067 | F -0.17 | I -0.288 | K 0.195 | M 0.212 | S -0.444 | A -0.29
G23: A 0.148
R10: L 0.585 | F 0.608 | P 0.352 | A 0.904 | V 0.703 | H 1.1 | W 0.338 | S 0.717 | D 0.014 | Y 0.518 | K 0.409 | I 0.521 | N -0.022 | E 0.27 | C 0.957
Q19: M 0.026 | K 0.143 | R -0.029 | V 0.159 | P 0.109 | E 0.163 | D 0.212 | S -0.044 | N 0.136 | T -0.346 | C 0.103 | G 0.323 | A 0.106
D12: K -0.274 | E 0.032 | L -0.198 | H 0.081 | T -0.016 | C 0.141 | Q -0.208 | P -0.118 | N 0.187 | V 0.312 | Y -0.025 | F -0.149 | S 0.117 | A 0.064
T11: S 0.058 | C 0.183 | W -0.133 | L 0.156 | H 0.346 | F -0.306 | D 0.066 | K 0.427 | V 0.587 | P -0.025 | M 0.436 | E 0.312 | G 0.354 | Q 0.312 | R 0.1
K18: W -0.195 | Y -0.447 | H 0.155 | P -0.165 | F -0.312 | G 0.098 | C 0.01 | M -0.011 | T -0.164 | V 0.011 | I -0.295 | R -0.072 | Q -0.105 | E 0.098 | S 0.021 | D -0.099 | L -0.217
N22: S 0.382 | V 0.193 | L -0.241 | Y 0.19 | C 0.289 | Q 0.106 | A 0.05 | W 0.137 | T 0.079 | P 0.027 | K 0.066 | F -0.377 | G 0.439 | D 0.011 | R 0.208
C9: M -0.716 | A -0.417 | N -0.717 | K -0.148 | G -0.262 | D -0.271 | Y -0.937 | H 0.389 | S -0.733 | R -0.436 | W -0.999 | P -0.049 | E -0.235 | T -0.203 | Q -0.09
K21: V -0.026 | P 0.264 | W 0.037 | S -0.104 | R 0.129 | Q 0.235 | M -0.054 | G 0.145 | A 0.008
F4: R -0.19 | G 0.044 | Y -0.14 | E -0.134 | L 0.036 | K -0.137 | T -0.126 | C 0.659 | M 0.64 | A 0.101 | S -0.169 | N 0.34 | P -0.208 | H 0.114 | I 0.125 | D 0.282
F13: W -0.213 | A 0.139 | E -0.007 | V 0.337 | Q -0.593 | K -0.629 | R -0.144 | D -0.21 | M 0.192 | L -0.179 | G -0.116 | S -0.164 | H -0.244 | T 0.039
Q8: A 0.821 | G 0.934 | S 0.839 | T 0.864 | L 0.723 | Y 0.428 | H 0.58 | W 0.557 | C 0.506 | M 0.657 | V 0.896 | K 0.788 | E 0.849 | N 0.741 | P -0.393 | R 0.843
P3: G 0.22 | A 0.313 | C 0.488 | W -0.243 | H 0.215 | I 0.284 | D -0.521 | R 0.121 | L 0.095 | K -0.118 | S 0.398 | E 0.213 | V -0.057 | T -0.066
V5: T 0.041 | D -0.568 | G -0.302 | E -0.226 | A 0.116 | F -0.288 | M -0.03 | W -0.405 | K 0.027 | S 0.136 | Q 0.14 | R -0.027 | I -0.126 | P -0.29 | L 0.18 | C -0.351
W17: T 0.564 | R 0.092 | S 0.127 | E 0.196 | K 0.387 | C 0.149 | L 0.051 | A -0.009 | P -0.135 | V 0.082 | Q 0.523 | Y 0.557 | H 0.009 | D 0.285 | I 0.013
H16: S -0.084 | W 0.017 | P -0.23 | Y -0.004 | L -0.272 | R -0.05 | I -0.073 | E -0.042 | N -0.319 | D 0.015 | G -0.022 | Q -0.14 | A -0.077 | F -0.005 | T 0.09 | C 0.072 | M -0.1 | K -0.28
